One test deals with HLA-DRB1*0401 (human). As to the kind of experiment: radioligand binding.
The next test addresses HLA-DRB1*0404 (human). Briefly: radioligand binding.

pIC50: −log10 of the molar value.

As a reminder, the pIC50 is the IC50 on a negative log10 scale, so that one unit is a factor of ten. High values mean a small IC50, low ones a large IC50.

Regarding tyrosinase 365-381D (peptide), the negative-log IC50 (pIC50) is 7.77 with HLA-DRB1*0401 (human) and 7.51 with HLA-DRB1*0404 (human).

For the origin of these results see publication PMC2363969, “gp100/pmel17 and tyrosinase encode multiple epitopes recognized by Th1-type CD4+T cells” (British Journal of Cancer, 2001).
